From PMC5182127, “Cellular and viral peptides bind multiple sites on the N‐terminal domain of clathrin” (Traffic (Copenhagen, Denmark), 2016)

T1: GST‐AP2CBM (human, UniProt P63010 629-640)
T1 construct: also called CBM from flexible hinge of β2 adaptin subunit of human AP2; source: E. coli BL21(DE3) pLysS, purified (glutathione resin, SEC); not shown: GST, N-terminal, kept
T1 chain (looked up): GDLLNLDLGPPV

T2: GST‐AmphCBM (human, UniProt P49418 349-358)
T2 construct: also called human amphiphysin I CBM; source: E. coli BL21(DE3) pLysS, purified (glutathione resin, SEC); not shown: GST, N-terminal, kept
T2 chain (looked up): ETLLDLDFDP

T3: GST‐Amph4T1 (rat, UniProt O08838 349-356)
T3 construct: also called extended amphiphysin CBM construct; source: E. coli BL21(DE3) pLysS, purified (glutathione resin, SEC)
T3 chain: ETLLDLDFLERPHRD

T4: GST‐AP2arrS (human, UniProt P63010 623-632)
T4 construct: also called extended arrestin motif (LLGDLL); source: E. coli BL21(DE3) pLysS, purified (glutathione resin, SEC); not shown: GST, N-terminal, kept
T4 chain (looked up): SQGDLLGDLL

T5: clathrin heavy chain N‐terminal domain (1‐363) (bovine, UniProt P49951 1-363)
T5 construct: also called NTD; clathrin NTD; source: E. coli BL21(DE3) pLysS, purified (glutathione Sepharose, thrombin cleavage, Superdex 200); not shown: GST, N-terminal, cleaved
T5 sequence (looked up): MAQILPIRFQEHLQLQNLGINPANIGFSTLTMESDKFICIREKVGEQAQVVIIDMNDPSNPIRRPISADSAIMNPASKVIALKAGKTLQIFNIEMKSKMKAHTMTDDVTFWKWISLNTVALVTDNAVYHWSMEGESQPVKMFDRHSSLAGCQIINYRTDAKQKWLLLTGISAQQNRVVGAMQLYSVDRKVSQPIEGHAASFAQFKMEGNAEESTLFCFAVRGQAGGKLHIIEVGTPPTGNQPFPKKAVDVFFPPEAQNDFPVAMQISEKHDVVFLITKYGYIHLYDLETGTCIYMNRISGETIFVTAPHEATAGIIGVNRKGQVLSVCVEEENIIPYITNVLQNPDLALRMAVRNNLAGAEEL


What was measured:
Details in all cases: both partners purified
GST‐AP2CBM = biological target: T1, GST‐AP2CBM; experiment: pull-down; 500 µg GST or GST-peptide bait on glutathione sepharose 4B; 0.1 mg/mL wild-type or mutant His-NTD-NEMO as prey, 2 h, 4°C; 25 mM HEPES-KOH, 125 mM potassium acetate, 5 mM magnesium acetate, 2 mM EDTA, 2 mM EGTA, 1 mM DTT, pH 7.2; washes with PBS; immunoblot with anti-clathrin NTD antibody
GST‐AmphCBM = biological target: T2, GST‐AmphCBM; experiment: as above
GST‐Amph4T1 = biological target: T3, GST‐Amph4T1; experiment: as above
GST‐AP2arrS = biological target: T4, GST‐AP2arrS; experiment: as above
[1] = biological target: T5, clathrin heavy chain N‐terminal domain …; experiment: crystal structure; co-crystals of NTD (14 or 20 mg/mL) with 3.4-3.6 mM peptide, sitting drop, 20°C, sodium malonate; peptide also in the cryoprotectant

Binder	binding result (GST‐AP2CBM)	binding result (GST‐AmphCBM)	binding result (GST‐Amph4T1)	binding result [1]	also measured
His‐NTD‐NEMO Q89A + F91K (other, UniProt P49951 1-363, looked up, also called clathrin box mutant; not shown: His6, N-terminal, kept) MAQILPIRFQEHLQLQNLGINPANIGFSTLTMESDKFICIREKVGEQAQVVIIDMNDPSNPIRRPISADSAIMNPASKVIALKAGKTLAIKNIEMKSKMKAHTMTDDVTFWKWISLNTVALVTDNAVYHWSMEGESQPVKMFDRHSSLAGCQIINYRTDAKQKWLLLTGISAQQNRVVGAMQLYSVDRKVSQPIEGHAASFAQFKMEGNAEESTLFCFAVRGQAGGKLHIIEVGTPPTGNQPFPKKAVDVFFPPEAQNDFPVAMQISEKHDVVFLITKYGYIHLYDLETGTCIYMNRISGETIFVTAPHEATAGIIGVNRKGQVLSVCVEEENIIPYITNVLQNPDLALRMAVRNNLAGAEELKSSVVGSERKRGMQLEDLKQQLQQAEEALVAKQEVIDKLKEEAEQHKIVMETVPVLKAQADIYKADFQAERQAREKLAEKKELLQEQLEQLQREYSKLKASCQESARIEDMRKRHVEVSQ	binds	binds	binds		
His‐NTD‐NEMO Q89A + F91K + F9W (other, UniProt P49951 1-363, looked up, also called mutant with disrupted clathrin and Royle boxes; printed in the text as Q98A + F91K + F9W; not shown: His6, N-terminal, kept) MAQILPIRWQEHLQLQNLGINPANIGFSTLTMESDKFICIREKVGEQAQVVIIDMNDPSNPIRRPISADSAIMNPASKVIALKAGKTLAIKNIEMKSKMKAHTMTDDVTFWKWISLNTVALVTDNAVYHWSMEGESQPVKMFDRHSSLAGCQIINYRTDAKQKWLLLTGISAQQNRVVGAMQLYSVDRKVSQPIEGHAASFAQFKMEGNAEESTLFCFAVRGQAGGKLHIIEVGTPPTGNQPFPKKAVDVFFPPEAQNDFPVAMQISEKHDVVFLITKYGYIHLYDLETGTCIYMNRISGETIFVTAPHEATAGIIGVNRKGQVLSVCVEEENIIPYITNVLQNPDLALRMAVRNNLAGAEELKSSVVGSERKRGMQLEDLKQQLQQAEEALVAKQEVIDKLKEEAEQHKIVMETVPVLKAQADIYKADFQAERQAREKLAEKKELLQEQLEQLQREYSKLKASCQESARIEDMRKRHVEVSQ	binds		binds		binding result (GST‐AP2arrS): binds
His‐NTD‐NEMO Q89A + F91K + Q192Y (other, UniProt P49951 1-363, looked up, also called His‐NTD‐NEMO mutated at both the clathrin and arrestin boxes; not shown: His6, N-terminal, kept) MAQILPIRFQEHLQLQNLGINPANIGFSTLTMESDKFICIREKVGEQAQVVIIDMNDPSNPIRRPISADSAIMNPASKVIALKAGKTLAIKNIEMKSKMKAHTMTDDVTFWKWISLNTVALVTDNAVYHWSMEGESQPVKMFDRHSSLAGCQIINYRTDAKQKWLLLTGISAQQNRVVGAMQLYSVDRKVSYPIEGHAASFAQFKMEGNAEESTLFCFAVRGQAGGKLHIIEVGTPPTGNQPFPKKAVDVFFPPEAQNDFPVAMQISEKHDVVFLITKYGYIHLYDLETGTCIYMNRISGETIFVTAPHEATAGIIGVNRKGQVLSVCVEEENIIPYITNVLQNPDLALRMAVRNNLAGAEELKSSVVGSERKRGMQLEDLKQQLQQAEEALVAKQEVIDKLKEEAEQHKIVMETVPVLKAQADIYKADFQAERQAREKLAEKKELLQEQLEQLQREYSKLKASCQESARIEDMRKRHVEVSQ		binds	binds		
His‐NTD‐NEMO Q192Y (other, UniProt P49951 1-363, looked up, also called arrestin box mutant; not shown: His6, N-terminal, kept) MAQILPIRFQEHLQLQNLGINPANIGFSTLTMESDKFICIREKVGEQAQVVIIDMNDPSNPIRRPISADSAIMNPASKVIALKAGKTLQIFNIEMKSKMKAHTMTDDVTFWKWISLNTVALVTDNAVYHWSMEGESQPVKMFDRHSSLAGCQIINYRTDAKQKWLLLTGISAQQNRVVGAMQLYSVDRKVSYPIEGHAASFAQFKMEGNAEESTLFCFAVRGQAGGKLHIIEVGTPPTGNQPFPKKAVDVFFPPEAQNDFPVAMQISEKHDVVFLITKYGYIHLYDLETGTCIYMNRISGETIFVTAPHEATAGIIGVNRKGQVLSVCVEEENIIPYITNVLQNPDLALRMAVRNNLAGAEELKSSVVGSERKRGMQLEDLKQQLQQAEEALVAKQEVIDKLKEEAEQHKIVMETVPVLKAQADIYKADFQAERQAREKLAEKKELLQEQLEQLQREYSKLKASCQESARIEDMRKRHVEVSQ	binds	binds	binds		
CGDLLNLDLG (also called peptide of the β2 adaptin CBM; source: synthetic peptide, bought: Designer Bioscience) [AP2CBMpep]				binds	
ETLLDLDFDP (also called peptide of the amphiphysin CBM; source: synthetic peptide, bought: Genscript) [AmphCBMpep]				binds	
ETLLDLDFLE (source: synthetic peptide, bought: Genscript) [Amph4T1pep]				binds	
SDILFPADS (also called peptide of the putative CBM of HDAg-L1; source: synthetic peptide, bought: Designer Bioscience) [HDAg‐L1pep]				binds	
SPRLPLLES (also called peptide of the putative CBM of HDAg-L2; source: synthetic peptide, bought: Designer Bioscience) [HDAg‐L2pep]				binds	
ETLLDLDFDPFK (source: synthetic peptide, bought: Genscript) [AmphCBMlongpep]				binds	
